Results published in patent publication US20130196915, “AFFINITY HYDROGELS FOR CONTROLLED PROTEIN RELEASE” (published 2013).
Changes are numbered by the printed parent chain.

Assays:
PDGF-BB [1] = target: T1, PDGF-BB (Homo sapiens, UniProt P01127 P01127:82-190); assay: SPR; virtually same as S1; conditions: tags: R&D Systems; amine-coupled to SPR chip; chain copies: 2 (inferred, homodimer)
Experimental: (§1) The affinities of the aptamers were measured with surface plasmon resonance (SPR) spectrometry (SR7000DC, Reichert Analytical Instrument, Depew, N.Y.). Carboxyl group-functionalized sensor chips were purchased from the Reichert Analytical Instrument. The chips were initially activated with 0.2 M EDC/0.1 M NHS for 10 min After the activation step, PDGF-BB (20 μg/ml in 25 mM Na₂HPO₄ at pH 8.5) was flowed over the activated sensor chip for protein immobilization. Before the test, the system was equilibrated with the running buffer for 30 min. The running buffer was made of PBS buffer (pH 7.4) containing 0.05% Tween 20. During the test, the aptamer solution was flowed over the sensor chip at a flow rate of 30 μL/minute for 5 minutes. Subsequently, the flowing solution was switched to the running buffer for molecular dissociation. After each test, the sensor chip was regenerated by flowing 1 M NaCl in the channel for 2 minutes and then washed with the running buffer. To determine the dissociation constants, a series of aptamer solutions were prepared with the concentration ranging from 3.13 to 200 nM. The data were processed with the Scrubber 2.0 software (BioLogic Software, Australia). The responses from the reference channel were subtracted from the responses from analyte channel before data analysis to minimize the effects of reflective index changes, nonspecific binding, and instrument drift. The dissociation constant (KD) was determined by fitting the data to a simple biomolecular “1:1 binding” model.

PDGF-BB [2] = target: T1, PDGF-BB; assay: SPR; PBS, 0.05% Tween 20; conditions: tags: R&D Systems, amine-coupled to SPR chip, chain copies: 2 (inferred, homodimer)
Experimental: The molecular interaction between PDGF-BB and the aptamers were studied by SPR spectrometry (SR7000DC, Reichert Analytical Instrument, Depew, N.Y.). PDGF-BB was immobilized onto a sensor chip via amide synthesis. An aqueous solution of NHS (0.0115 g/ml) and EDC (0.038 g/ml) was flowed over the sensor chip at a flow rate of 30 μL/min. After the EDC/NHS-mediated activation of the biochip surface for 10 min, 10 μg/mL of PDGF-BB solution (pH 8.5) was flowed over the chip surface for protein immobilization. Prior to the molecular recognition analysis, the sensor chip was equilibrated for 30 min with a phosphate-buffered saline (PBS) solution containing 0 05% Tween 20. During the binding analysis, 500 nM of binding solution containing either anti-PDGF-BB aptamer or its control was flowed over the biochip at 30 μL/min. The biochip was regenerated with 1 M of NaCl. The binding analysis was repeated twice to confirm the reproducibility. The equilibrium dissociation constant (KD) was calculated with direct curve fitting of the sensorgrams using the software provided by the manufacturer.
Polyacrylamide gel and anti-platelet-derived growth factor-BB (PDGF-BB) aptamer were used as a model system. […] The binding functionality was evaluated with surface plasmon resonance (SPR) analysis, which directly provides information on the binding affinity.

PDGF-BB [3] = target: T1, PDGF-BB; assay: SPR; COs did not significantly accelerate dissociation; koff only in figure; conditions: tags: R&D Systems; amine-coupled to SPR chip; chain copies: 2 (inferred, homodimer); three-stem junction
PDGF-BB [4] = target: T1, PDGF-BB; assay: SPR; PBS with 500 nM scrambled CO during dissociation; conditions: tags: R&D Systems; amine-coupled to SPR chip; chain copies: 2 (inferred, homodimer)
Experimental: The molecular interaction between the PDGF-BB and its aptamer was studied using the SPR spectrometry (SR7000DC; Reichert Analytical Instrument; Depew, N.Y.). A carboxyl group-functionalized sensor chip (Reichert Analytical Instrument; Depew, N.Y.) was activated with NHS and EDC for PDGF-BB immobilization. The binding solution of 100 nM of either anti-PDGF-BB aptamers or scrambled aptamers was flowed over the biochip for 5 minutes (30 μL/min) for the analysis of molecular association. Subsequently, the washing solution (PBS, PBS containing 500 nM of CO, or PBS containing 500 nM of S—CO) was introduced over the biochip for another five minutes (30 μL/min) for the analysis of molecular dissociation. The biochip was regenerated by flowing 1 M of NaCl in the channel for two minutes (100 μL/min) followed by the PBS. The dissociation rate constant (koff) was obtained by fitting the binding profiles with the Scrubber 2.0 software as provided by the manufacturer.
Because real applications were involve not only aptamers and COs, but also target proteins, surface plasmon resonance (SPR) was used to directly examine the intermolecular hybridization-mediated protein dissociation (FIG. 11).

PDGF-BB [5] = target: T1, PDGF-BB; assay: SPR; PBS pH 7.4, 0.05% Tween 20; equilibrium analysis; conditions: tags: R&D Systems; amine-coupled to SPR chip; chain copies: 2 (inferred, homodimer)
Experimental: as §1
The interaction of a molecular pair was determined by not only molecular association but also molecular dissociation. The dissociation rate constant divided by the association rate constant is defined as the equilibrium dissociation constant (KD). Thus, a series of aptamer solutions were prepared and the aptamer-protein interactions were characterized by calculating the dissociation constants (FIG. 19). The concentration-dependent responses were processed to calculate KD using an equilibrium analysis. […]

PDGF-BB [6] = target: T1, PDGF-BB; assay: SPR; reference for normalized response; PBS pH 7.4, 0.05% Tween 20; conditions: tags: R&D Systems; amine-coupled to SPR chip; chain copies: 2 (inferred, homodimer); three-stem junction with 10-nt 5' tail
Experimental: The affinities of the aptamers were measured with surface plasmon resonance (SPR) spectrometry (SR7000DC, Reichert Analytical Instrument, Depew, N.Y.). Carboxyl group-functionalized sensor chips were purchased from the Reichert Analytical Instrument. The chips were initially activated with 0.2 M EDC/0.1 M NHS for 10 min After the activation step, PDGF-BB (20 μg/ml in 25 mM Na₂HPO₄ at pH 8.5) was flowed over the activated sensor chip for protein immobilization. Before the test, the system was equilibrated with the running buffer for 30 min. The running buffer was made of PBS buffer (pH 7.4) containing 0.05% Tween 20. During the test, the aptamer solution was flowed over the sensor chip at a flow rate of 30 μL/minute for 5 minutes. Subsequently, the flowing solution was switched to the running buffer for molecular dissociation. After each test, the sensor chip was regenerated by flowing 1 M NaCl in the channel for 2 minutes and then washed with the running buffer. To determine the dissociation constants, a series of aptamer solutions were prepared with the concentration ranging from 3.13 to 200 nM. The data were processed with the Scrubber 2.0 software (BioLogic Software, Australia). […] The dissociation constant (KD) was determined by fitting the data to a simple biomolecular “1:1 binding” model.

T1 sequence (P01127 82-190, one chain of several): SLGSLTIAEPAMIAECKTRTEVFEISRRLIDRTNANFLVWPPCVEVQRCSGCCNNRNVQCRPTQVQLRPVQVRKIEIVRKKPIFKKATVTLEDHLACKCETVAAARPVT

B1: S4 (ssDNA)
DNA: CGCCATTCAGACAGGCTACGGCACGTAGAGCATCACCATGATCCTG
**Q.** Does B1 bind (PDGF-BB [1])?
**A.** Result: binds

B2: control (lower-affinity) aptamer (ssDNA)
DNA: GCGATACTCCACAGCTGACGGCACGGTAAGCATCACCATGATGTCC
modifications: 5'-Acrydite
**Q.** Which Kd (PDGF-BB [2]) does the source give for B2 here?
**A.** Its Kd is 220 nM.

B3: S2 (ssDNA)
DNA: CAATTCCGCGACAGGCTACGGCACGTAGAGCATCACCATGATCCTG
**Q.** Does B3 bind (PDGF-BB [1])?
**A.** Result: binds

B4: S10 (ssDNA)
DNA: CATGAGCCCTACAGGCTACGGCACGTAGAGCATCACCATGATCCTG
**Q.** Does B4 bind (PDGF-BB [1])?
**A.** Result: binds

B5: S6 (ssDNA)
DNA: TCGCACATGCACAGGCTACGGCACGTAGAGCATCACCATGATCCTG
**Q.** Does B5 bind (PDGF-BB [1])?
**A.** Result: binds

B6: 36-nt truncated aptamer (ssDNA)
DNA: ACAGGCTACGGCACGTAGAGCATCACCATGATCCTG
**Q.** Does B6 bind (PDGF-BB [3])?
**A.** Result: binds

B7: S3 (ssDNA)
DNA: CCACGGTCTAACAGGCTACGGCACGTAGAGCATCACCATGATCCTG
**Q.** Does B7 bind (PDGF-BB [1])?
**A.** Result: binds

B8: 61-nt anti-PDGF-BB aptamer (ssDNA)
DNA: AAAAAAAAAAACAGGCTACGGCACGTAGAGCATCACCATGATCCTGTGACTTGAGCAAAAT
modifications: 5'-NH2
**Q.** For B8, which koff (PDGF-BB [4]) is on record?
**A.** Its koff is 0.00065 s⁻¹.

B9: anti-PDGF-BB aptamer (higher affinity, 46-nt) (ssDNA)
DNA: GCGATACTCCACAGGCTACGGCACGTAGAGCATCACCATGATCCTG
modifications: 5'-Acrydite
**Q.** Which Kd (PDGF-BB [2]; three-stem junction with 10-nt 5' tail) does the source give for B9 here?
**A.** The Kd was 25 nM.

B10: M3 (ssDNA)
DNA: B9 DNA with C44T, T45C, G46A
**Q.** Which Kd (PDGF-BB [5]) does the source give for B10 here?
**A.** Its Kd is 354 nM.

B11: M1 (ssDNA)
DNA: B9 DNA with G46A
**Q.** B11 was tested. Which Kd (PDGF-BB [5]) did it give?
**A.** The Kd was 27.6 nM.

B12: M2 (ssDNA)
DNA: B9 DNA with T45C, G46A
**Q.** Which Kd (PDGF-BB [5]) does the source give for B12 here?
**A.** The Kd was 109 nM.

B13: S1 (ssDNA)
DNA: B9 DNA
**Q.** Does B13 bind (PDGF-BB [6])?
**A.** Result: binds

B14: S9 (ssDNA)
DNA: GCAACTGCTCACAGGCTACGGCACGTAGAGCATCACCATGATCCTG
**Q.** Does B14 bind (PDGF-BB [1])?
**A.** Result: binds
